# In FireProtDB (doi:10.1007/s00792-015-0748-z):
# B1: L-asparaginase wild type, Q8TZE8 (protein)
# chain: MKILLIGMGGTIASVKGENGYEASLSVKEVLDIAGIKDCEDCDFLDLKNVDSTLIQPEDWVDLAETLYKNVKKYDGIIVTHGTDTLAYTSSMISFMLRNPPIPIVFTGSMIPATEENSDAPLNLQTAIKFATSGIRGVYVAFNGKVMLGVRTSKVRTMSRDAFESINYPIIAELRGEDLVVNFIPKFNNGEVTLDLRHDPKVLVIKLIPGLSGDIFRAAVELGYRGIVIEGYGAGGIPYRGSDLLQTIEELSKEIPIVMTTQAMYDGVDLTRYKVGRLALRAGVIPAGDMTKEATVTKLMWILGHTNNVEEIKVLMRKNLVGELRD
# Settings: Pyrococcus furiosus (strain ATCC 43587 / DSM 3638 / JCM 8422 / Vc1), 60 °C, GdnHCl, Fluorescence, Tris, NaCl, transition: 2, reversible: yes, whole UniProt chain shown
protein,measurement,setting,value
B1,denaturant m value,pH 8,5.12 kcal/mol/M
same,denaturant midpoint (higher = more stable),pH 8,3.04 M
same,unfolding free energy,pH 8,15.7 kcal/mol
same,denaturant m value,pH 9,0.9 kcal/mol/M
same,denaturant midpoint (higher = more stable),pH 9,1.99 M
same,unfolding free energy,pH 9,1.6 kcal/mol
